Laboratory results as given in US20140274782A1, “AFFINITY REAGENTS AND METHODS FOR DETECTION, PURIFICATION, AND PROTEOMIC ANALYSIS OF METHYLATED PROTEINS” (The Board of Trustees of the Leland Stanford Junior …, priority 2013, published 2014).

T1: G9a and GLP (Homo sapiens, UniProt Q96KQ7+Q9H9B1)
T1 sequence (Q96KQ7 2-1210 limits assumed): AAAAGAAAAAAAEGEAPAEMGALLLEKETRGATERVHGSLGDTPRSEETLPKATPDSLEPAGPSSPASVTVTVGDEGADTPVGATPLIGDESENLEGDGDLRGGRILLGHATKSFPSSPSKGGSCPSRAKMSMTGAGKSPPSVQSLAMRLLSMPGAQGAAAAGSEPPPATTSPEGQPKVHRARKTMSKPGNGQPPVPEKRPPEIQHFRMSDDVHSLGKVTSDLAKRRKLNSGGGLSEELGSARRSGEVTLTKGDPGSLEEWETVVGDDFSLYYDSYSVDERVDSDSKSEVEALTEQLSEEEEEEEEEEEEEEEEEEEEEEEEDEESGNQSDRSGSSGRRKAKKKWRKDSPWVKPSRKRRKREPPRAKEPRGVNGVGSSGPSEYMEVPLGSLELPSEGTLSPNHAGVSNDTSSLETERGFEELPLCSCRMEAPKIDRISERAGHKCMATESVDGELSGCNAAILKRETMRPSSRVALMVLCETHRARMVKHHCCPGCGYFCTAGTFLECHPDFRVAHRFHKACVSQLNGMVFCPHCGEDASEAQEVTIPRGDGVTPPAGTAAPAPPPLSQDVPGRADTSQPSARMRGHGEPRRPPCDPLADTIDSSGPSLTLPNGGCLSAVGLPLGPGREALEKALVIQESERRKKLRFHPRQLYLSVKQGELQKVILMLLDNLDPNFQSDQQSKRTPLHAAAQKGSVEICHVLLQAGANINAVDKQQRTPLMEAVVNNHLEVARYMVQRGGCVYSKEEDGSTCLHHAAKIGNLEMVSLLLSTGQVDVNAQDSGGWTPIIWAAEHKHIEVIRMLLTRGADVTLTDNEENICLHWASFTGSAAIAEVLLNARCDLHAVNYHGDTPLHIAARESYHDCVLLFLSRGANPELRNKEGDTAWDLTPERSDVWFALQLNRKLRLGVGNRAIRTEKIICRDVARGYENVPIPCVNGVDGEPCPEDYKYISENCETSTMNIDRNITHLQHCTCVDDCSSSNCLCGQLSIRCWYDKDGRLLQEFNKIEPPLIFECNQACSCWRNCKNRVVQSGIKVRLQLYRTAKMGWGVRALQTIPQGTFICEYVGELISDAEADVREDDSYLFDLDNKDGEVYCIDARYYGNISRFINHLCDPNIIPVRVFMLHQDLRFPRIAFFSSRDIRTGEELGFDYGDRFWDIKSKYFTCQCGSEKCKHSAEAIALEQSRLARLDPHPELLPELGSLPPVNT
T1 sequence (Q9H9B1 2-1298 limits assumed): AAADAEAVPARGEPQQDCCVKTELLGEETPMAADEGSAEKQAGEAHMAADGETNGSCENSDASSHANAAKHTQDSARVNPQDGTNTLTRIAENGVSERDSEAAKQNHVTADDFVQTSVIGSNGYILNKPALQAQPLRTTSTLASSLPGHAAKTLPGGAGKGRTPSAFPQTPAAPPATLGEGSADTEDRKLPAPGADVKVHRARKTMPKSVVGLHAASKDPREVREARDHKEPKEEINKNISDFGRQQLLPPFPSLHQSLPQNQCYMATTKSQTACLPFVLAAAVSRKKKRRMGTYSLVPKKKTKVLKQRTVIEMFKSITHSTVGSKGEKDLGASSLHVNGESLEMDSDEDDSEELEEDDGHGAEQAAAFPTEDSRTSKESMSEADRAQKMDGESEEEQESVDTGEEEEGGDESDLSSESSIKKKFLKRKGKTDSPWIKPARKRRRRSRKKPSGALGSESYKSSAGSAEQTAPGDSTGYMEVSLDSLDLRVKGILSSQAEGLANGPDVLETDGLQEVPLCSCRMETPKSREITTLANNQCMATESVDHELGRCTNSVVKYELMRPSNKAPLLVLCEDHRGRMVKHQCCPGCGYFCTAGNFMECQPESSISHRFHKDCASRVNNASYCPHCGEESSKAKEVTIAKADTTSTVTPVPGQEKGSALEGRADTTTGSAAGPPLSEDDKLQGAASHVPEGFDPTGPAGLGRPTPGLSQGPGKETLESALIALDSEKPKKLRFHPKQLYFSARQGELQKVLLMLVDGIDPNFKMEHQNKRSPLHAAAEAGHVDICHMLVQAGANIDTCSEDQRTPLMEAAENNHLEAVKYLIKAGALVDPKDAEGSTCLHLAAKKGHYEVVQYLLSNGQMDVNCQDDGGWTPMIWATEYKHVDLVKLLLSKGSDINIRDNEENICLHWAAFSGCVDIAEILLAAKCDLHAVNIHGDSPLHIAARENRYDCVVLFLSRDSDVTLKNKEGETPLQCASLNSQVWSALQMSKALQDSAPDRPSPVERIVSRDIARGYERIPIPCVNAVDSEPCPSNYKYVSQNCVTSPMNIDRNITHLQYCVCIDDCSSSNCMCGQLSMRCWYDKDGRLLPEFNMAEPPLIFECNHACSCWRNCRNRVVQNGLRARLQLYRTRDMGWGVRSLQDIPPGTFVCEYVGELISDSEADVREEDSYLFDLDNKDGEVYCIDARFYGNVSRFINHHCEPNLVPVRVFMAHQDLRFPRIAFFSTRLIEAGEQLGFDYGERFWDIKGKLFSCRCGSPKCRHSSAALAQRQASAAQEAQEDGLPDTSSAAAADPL

B1: Probable ATP-dependent RNA helicase DDX46 (protein, UniProt Q7L014 2-1031, looked up)
Probable ATP-dependent RNA …: GRESRHYRKRSASRGRSGSRSRSRSPSDKRSKRGDDRRSRSRDRDRRRERSRSRDKRRSRSRDRKRLRRSRSRERDRSRERRRSRSRDRRRSRSRSRGRRSRSSSPGNKSKKTENRSRSKEKTDGGESSKEKKKDKDDKEDEKEKDAGNFDQNKLEEEMRKRKERVEKWREEQRKKAMENIGELKKEIEEMKQGKKWSLEDDDDDEDDPAEAEKEGNEMEGEELDPLDAYMEEVKEEVKKFNMRSVKGGGGNEKKSGPTVTKVVTVVTTKKAVVDSDKKKGELMENDQDAMEYSSEEEEVDLQTALTGYQTKQRKLLEPVDHGKIEYEPFRKNFYVEVPELAKMSQEEVNVFRLEMEGITVKGKGCPKPIKSWVQCGISMKILNSLKKHGYEKPTPIQTQAIPAIMSGRDLIGIAKTGSGKTIAFLLPMFRHIMDQRSLEEGEGPIAVIMTPTRELALQITKECKKFSKTLGLRVVCVYGGTGISEQIAELKRGAEIIVCTPGRMIDMLAANSGRVTNLRRVTYVVLDEADRMFDMGFEPQVMRIVDNVRPDRQTVMFSATFPRAMEALARRILSKPIEVQVGGRSVVCSDVEQQVIVIEEEKKFLKLLELLGHYQESGSVIIFVDKQEHADGLLKDLMRASYPCMSLHGGIDQYDRDSIINDFKNGTCKLLVATSVAARGLDVKHLILVVNYSCPNHYEDYVHRAGRTGRAGNKGYAYTFITEDQARYAGDIIKALELSGTAVPPDLEKLWSDFKDQQKAEGKIIKKSSGFSGKGFKFDETEQALANERKKLQKAALGLQDSDDEDAAVDIDEQIESMFNSKKRVKDMAAPGTSSVPAPTAGNAEKLEIAKRLALRINAQKNLGIESQDVMQQATNAILRGGTILAPTVSAKTIAEQLAEKINAKLNYVPLEKQEEERQDGGQNESFKRYEEELEINDFPQTARWKVTSKEALQRISEYSEAAITIRGTYFPPGKEPKEGERKIYLAIESANELAVQKAKAEITRLIKEELIRLQNSYQPTNKGRYKVL
B2: Cytoplasmic FMR1-interacting protein 1 (protein, UniProt Q7L576 1-1253, looked up)
Cytoplasmic FMR1-interacting …: MAAQVTLEDALSNVDLLEELPLPDQQPCIEPPPSSLLYQPNFNTNFEDRNAFVTGIARYIEQATVHSSMNEMLEEGQEYAVMLYTWRSCSRAIPQVKCNEQPNRVEIYEKTVEVLEPEVTKLMNFMYFQRNAIERFCGEVRRLCHAERRKDFVSEAYLITLGKFINMFAVLDELKNMKCSVKNDHSAYKRAAQFLRKMADPQSIQESQNLSMFLANHNKITQSLQQQLEVISGYEELLADIVNLCVDYYENRMYLTPSEKHMLLKVMGFGLYLMDGSVSNIYKLDAKKRINLSKIDKYFKQLQVVPLFGDMQIELARYIKTSAHYEENKSRWTCTSSGSSPQYNICEQMIQIREDHMRFISELARYSNSEVVTGSGRQEAQKTDAEYRKLFDLALQGLQLLSQWSAHVMEVYSWKLVHPTDKYSNKDCPDSAEEYERATRYNYTSEEKFALVEVIAMIKGLQVLMGRMESVFNHAIRHTVYAALQDFSQVTLREPLRQAIKKKKNVIQSVLQAIRKTVCDWETGHEPFNDPALRGEKDPKSGFDIKVPRRAVGPSSTQLYMVRTMLESLIADKSGSKKTLRSSLEGPTILDIEKFHRESFFYTHLINFSETLQQCCDLSQLWFREFFLELTMGRRIQFPIEMSMPWILTDHILETKEASMMEYVLYSLDLYNDSAHYALTRFNKQFLYDEIEAEVNLCFDQFVYKLADQIFAYYKVMAGSLLLDKRLRSECKNQGATIHLPPSNRYETLLKQRHVQLLGRSIDLNRLITQRVSAAMYKSLELAIGRFESEDLTSIVELDGLLEINRMTHKLLSRYLTLDGFDAMFREANHNVSAPYGRITLHVFWELNYDFLPNYCYNGSTNRFVRTVLPFSQEFQRDKQPNAQPQYLHGSKALNLAYSSIYGSYRNFVGPPHFQVICRLLGYQGIAVVMEELLKVVKSLLQGTILQYVKTLMEVMPKICRLPRHEYGSPGILEFFHHQLKDIVEYAELKTVCFQNLREVGNAILFCLLIEQSLSLEEVCDLLHAAPFQNILPRVHVKEGERLDAKMKRLESKYAPLHLVPLIERLGTPQQIAIAREGDLLTKERLCCGLSMFEVILTRIRSFLDDPIWRGPLPSNGVMHVDECVEFHRLWSAMQFVYCIPVGTHEFTVEQCFGDGLHWAGCMIIVLLGQQRRFAVLDFCYHLLKVQKHDGKDEIIKNVPLKKMVERIRKFQILNDEIITILDKYLKSGDGEGTPVEHVRCFQPPIHQSLASS
B3: Metastasis-associated protein 1 (protein)
chain: MAANMYRVGDYVYFENSSSNPYLIRRIEELNKTANGNVEAKVVCFYRRRDISSTLIALADKHATLSVCYKAGPGADNGEEGEIEEEMENPEMVDLPEKLKHQLRHRELFLSRQLESLPATHIRGKCSVTLLNETESLKSYLEREDFFFYSLVYDPQQKTLLADKGEIRVGNRYQADITDLLKEGEEDGRDQSRLETQVWEAHNPLTDKQIDQFLVVARSVGTFARALDCSSSVRQPSLHMSAAAASRDITLFHAMDTLHKNIYDISKAISALVPQGGPVLCRDEMEEWSASEANLFEEALEKYGKDFTDIQQDFLPWKSLTSIIEYYYMWKTTDRYVQQKRLKAAEAESKLKQVYIPNYNKPNPNQISVNNVKAGVVNGTGAPGQSPGAGRACESCYTTQSYQWYSWGPPNMQCRLCASCWTYWKKYGGLKMPTRLDGERPGPNRSNMSPHGLPARSSGSPKFAMKTRQAFYLHTTKLTRIARRLCREILRPWHAARHPYLPINSAAIKAECTARLPEASQSPLVLKQAVRKPLEAVLRYLETHPRPPKPDPVKSVSSVLSSLTPAKVAPVINNGSPTILGKRSYEQHNGVDGNMKKRLLMPSRGLANHGQARHMGPSRNLLLNGKSYPTKVRLIRGGSLPPVKRRRMNWIDAPDDVFYMATEETRKIRKLLSSSETKRAARRPYKPIALRQSQALPPRPPPPAPVNDEPIVIED

Tests used:
[1] = test system: 3×MBT domain of L3MBTL1; assay: Triple SILAC pull-down, 3xMBT/3xMBTD355N ratio (cytoplasmic, nuclear and chromatin fractions of 293T cells); assay type: binding, human; details: SILAC ratio; for Protein Ratios 3xMBT/D355N: pull-down by 3xMBT vs 3xMBTD355N, 293T cells;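 for all read-outs here: proteins quantified with MaxQuant, requiring at least two unique peptides and quantification in both label directions, normalized to the mean of proteins from a digested loading control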
[2] = biological target: T1, G9a and GLP; assay: Triple SILAC pull-down after UNC0638 treatment of 293T cells, DMSO/UNC0638 ratio of protein captured by 3×MBT; assay type: cell-based; design: cells were treated for 24 hours with UNC0638 at 2.5 μM or DMSO vehicle control; endogenous in cells; host or cells: HEK 293T; details: for Protein Ratios DMSO/UNC0638: SILAC ratio of protein captured by 3xMBT, 293T cells treated 24 hours with UNC0638 at 2.5 μM or DMSO;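 for all read-outs here: mass spectrometry (Q-Exactive) SILAC quantitation, DMSO/UNC0638 ratio computed after subtracting 3×MBTD355N mutant pull-down background, only proteins with at least twofold 3×MBT over mutant signal considered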

Row | Molecule | Protein Ratios 3xMBT/D355N [1] | Protein Ratios DMSO/UNC0638 [2] | 3xMBT/D355N UNC Heavy ([1]; pull-down 3xMBT vs 3xMBTD355N, experiment with UNC0638 in heavy SILAC media) | 3xMBT/D355N UNC Light ([1]; pull-down 3xMBT vs 3xMBTD355N, experiment with UNC0638 in light SILAC media) | Relative to UNC0638 UNC Heavy ([2]; SILAC ratio DMSO/UNC0638 of protein pulled down with 3xMBT, UNC0638 in heavy SILAC media) | Relative to UNC0638 UNC Light ([2]; SILAC ratio DMSO/UNC0638 of protein pulled down with 3xMBT, UNC0638 in light SILAC media) | Relative to UNC0638 Average ([2]; average of UNC Light and UNC Heavy experiments) | Candidate G9a/GLP target ([2]; reduced association with 3xMBT after UNC0638 treatment)
1 | B1 | 5.2 | 1.4 | – | – | – | – | – | –
2 | B2 | 3.4 | 1.4 | – | – | – | – | – | –
3 | B3 | 6.0 | 1.4 | 0.90 log base 2 | 4.28 log base 2 | 0.36 log base 2 | 0.56 log base 2 | 0.46 log base 2 | ✓
